Results taken from US8920805B2, “Inhibition of tumor metastasis by anti-neuropilin 2 antibodies” (Genentech, Inc., priority 2007, dated 2014).

Tested on: E 17.5 Hippocampal growth cones
Assay: Hippocampal neuronal growth cone collapse assay (Sema3F)
Assay type: cell-based
Settings: Anti-Nrp2^B 50 μg/ml; Nrp2 ECD 10 ug/ml
Procedure: FIG. 17. […] (A) Images of E 17.5 Hippocampal growth cones stained with rhodamine conjugated phalloidin. Control growth cones show large actin rich structures at the tip of each axon, which are reduced with Sema3F treatment. […] In contrast, Nrp2 ECD (10 ug/ml) does block this collapse. (B) Quality control for anti-Nrp2 immunohistochemistry. […] This antibody was subsequently used for IHC on fresh frozen tumor sections. (Scale bar main images=**μm and for inset images=**μm.
Then, the ability of Anti-Nrp2^B to modulate semaphorin function was tested. […] Thus, Anti-Nrp2^B acts to block specific aspects of Nrp2 function, inhibiting VEGFC but not VEGF or Sema3F mediated cellular responses.

B1: Nrp2 ECD: Nrp2 extracellular domain protein, positive control for blocking Sema3F (protein, UniProt O60462 21-864, looked up)
extracellular domain: RGQPDPPCGGRLNSKDAGYITSPGYPQDYPSHQNCEWIVYAPEPNQKIVLNFNPHFEIEKHDCKYDFIEIRDGDSESADLLGKHCGNIAPPTIISSGSMLYIKFTSDYARQGAGFSLRYEIFKTGSEDCSKNFTSPNGTIESPGFPEKYPHNLDCTFTILAKPKMEIILQFLIFDLEHDPLQVGEGDCKYDWLDIWDGIPHVGPLIGKYCGTKTPSELRSSTGILSLTFHTDMAVAKDGFSARYYLVHQEPLENFQCNVPLGMESGRIANEQISASSTYSDGRWTPQQSRLHGDDNGWTPNLDSNKEYLQVDLRFLTMLTAIATQGAISRETQNGYYVKSYKLEVSTNGEDWMVYRHGKNHKVFQANNDATEVVLNKLHAPLLTRFVRIRPQTWHSGIALRLELFGCRVTDAPCSNMLGMLSGLIADSQISASSTQEYLWSPSAARLVSSRSGWFPRIPQAQPGEEWLQVDLGTPKTVKGVIIQGARGGDSITAVEARAFVRKFKVSYSLNGKDWEYIQDPRTQQPKLFEGNMHYDTPDIRRFDPIPAQYVRVYPERWSPAGIGMRLEVLGCDWTDSKPTVETLGPTVKSEETTTPYPTEEEATECGENCSFEDDKDLQLPSGFNCNFDFLEEPCGWMYDHAKWLRTTWASSSSPNDRTFPDDRNFLRLQSDSQREGQYARLISPPVHLPRSPVCMEFQYQATGGRGVALQVVREASQESKLLWVIREDQGGEWKHGRIILPSYDMEYQIVFEGVIGKGRSGEIAIDDIRISTDVPLENCMEPISAFAGENFKVDIPEIHEREGYEDEIDDEYEVDWSNSSSATSGSGAPSTDKEKSWLYTLDP
modifications: extracellular domain
- semaphorin (Sema3F) induced growth cone collapse: inhibited this collapse completely
